# B1: TPR t1 (parent)
# chain: GACCAAUCUGCCCUCAGAGCUCGAGAACAUCUUCGGAUGCAGAGGAGGCAGGCUUCGGUGGCGCGAUAGCGCCAACGUCCUCAACCUCCAAUGCAUCCCACCACAUGAUGAUGCCUGAAGAGCCUUGGUUUUUUG
# Variants of: B1
# Assay: polymerase ribozyme fitness, log enrichment relative to wild type (log ratio); higher = more active; in vitro selection for triplet polymerase activity
# Method in brief: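 In triplicate, a single round of in vitro selection was run on each mutant library, PCR-built and transcribed, covering one subunit of a heterodimeric triplet polymerase ribozyme. Frozen incubation at −7 °C followed annealing with a biotinylated primer, partner subunit and triplets, and extended constructs were then gel-excised, streptavidin-captured and taken through RT-PCR. Fitness is the logarithm of genotype enrichment over wild-type enrichment, from inverse-variance-weighted replicate averages of Illumina-sequenced inputs and outputs. […] only genotypes with ≥10 input reads and ≥1 read per output were kept.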
row,Variant,polymerase ribozyme fitness (log ratio)
1,GACCAAUCUGCCCUCAGAGCUCGAGAACAUCUUCGGAUGCGGGGGAGGCAGGCUUCGGUGGCGCGAUAGCGCCAACGUCCUCAACCUCCAAUGCAUCCCACCACAUGAUGAUGCCUGAAGAGCCUUGGUUUUUUG,-1.45
2,GACCAAUCUGCCCUCAGAGCUCGAGAACAUCUUCGGAUGCCGAGGAGGCAGGCUUCGGUGGCGCGAUAGCGCCAACGUCCUCAACCUCCAAUGCAUCCCACCACAUGAUGAUGCCUGAAGAGCCUGGGUGUUUUG,-4.83
3,GACCAAUCUGCCCUCAGAGCUCGAGAACAUCUUCGGAUGCCGAGGAGGCAGGCUUCGGUGGCGCGAUACCGCCAACGUCCUCGACCUCCAAUGCAUCCCACCACAUGAUGAUGCCUGAAGAGCCUUGGUUUUUUG,-3.72
4,GACCAAUCUGCCCUCAGAGCUCGAGAACAUCUUCGGAUGCGGAGGAGGCAGGCUUCGGUGGCGCGAUAGCGCAAACGUCCUAAACCUCCAAUGCAUCCCACCACAUGAUGAUGCAUGAAGAGCCUUGGUUUUUUU,-2.65
5,GACCAAUCUGCCCUCAGAGCUCGAGAACAUCUUCGGAUGCGGAAGAGGCAGGCUUCGGUGGCGCGAUAGCGCCAACGUCCUCAACCUCCAAUGCAUCCCACCACAUGAUGAUGCCUGAAGAGUCUUGGUUUUUUG,0.224
6,GACCAAUCUGCCCUCAGAGCUCGAGAACAUCUUCGGAUGCGGAGGAGGCAGGCUUCAGUGGCGCGAUAGCGCCAACGUCCUCAACCUCCAAUGCAUCCCACCACACGAUGAUGCCUGAAGAGCCUUGGUUUUUUG,-1.93
7,GACCAAUCUGCCCUCAGAGCUCGAGAACAUCUUCGGAUGCGGAGGAGGCAGGCUUCGGUGGCGCGAUAGUGCCAACGUCCUAAACCUCCAAUGCAUCCCACCACAUGAUGAUGCCUGAAGAGCCGUGGUUUUUUG,-1.79
8,GACCAAUCUGCCCUCAGAGCUCGAGAACAUCUUCGGAUGCUGAGGAGGCAGGCUUCGGUGGCGCGGUAGCGCCAACGUCCUCAACCUCCAAAGCAUCCCACCACAUGAUGAUGCCUGAAGAGCCUUGGUUUUUUG,-2.28
9,GACCAAUCUGCCCUCAGAGCUCGAGAACAUCUUCGGAUGCGGAGGAGGCAGGCUUCGGUGUCGCGAUAGCGCCAACGUCCUCAACCUCCAAUGUAUCCCACCACAUGAUGAUGCCUGAAGAGCCUUGGUUUUUUG,-0.449
10,GACCAAUCUGCCCUCAGAGCUCGAGAACAUCUUCGGAUGCGGAGGAGGCAGGCUUCGGUGGCGCGAUAGCGCCAACGUCCUCAACCUCCAAUGCAUCCCACCACAUGAUGACGCCUGAAGAGCCUUGGUUUUUUG,0.756
11,GACCAAUCUGCCCUCAGAGCUCGAGAACAUCUUCGGAUGCGGAGGUGGCAGGCUUCGGUGGCGCGAUAGCGCCAACGUCCUCAACCUCCAAUGCAUCCCACCACAUGAUGAUGCCUGAAGAGCCUUGGUUUUUUG,-3.31
12,GACCAAUCUGCCCUCAGAGCUCGAGAACAUCUUCGGAUGCGGAGGAGGCAGGCUUCGGUGGCGCGAUAGCGCCAACGUCCUCAACCUCCAAUGCAUCCCACCACAUGAUGAUGCCUGGAUAGCCUUGGUAUUUUG,-1.43
13,GACCAAUCUGCCCUCAGAGCUCGAGAACAUCUUCGGAUGCGGAGGAGGCAGGCUUCGGUGGCGCGAUAACGCCAACGUCCUCAAACUCCAAUGCAUCCCACCACAUGAUGAUGCCUGAAGAGCCUUGGUUUUUUG,-5.81
14,GACCAAUCUGCCCUCAGAGCUCGAGAACAUCUUCGGAUGCGGAGGAGGCAGGCUUCGGUGACGCGAUAGCGCCAACGUCCUCAACCUCCAAUGCAUCCCAUCACAUGAUGAUGCCUGAAGAGCCUUGGUUUUGUG,-1.01
15,GACCAAUCUGCCCUCAGAGCUCGAGAACAUCUUCGGAUGCGGAGGAGGCAGGCUUCGGUGGCGCGAUAGCGCUAACGUCCUCAACCUCCAAUGCAUCCCACCACAUGAUGAUGCCUGAAGAGCCCUGGUUUUUUG,-2.74
16,GACCAAUCUGCCCUCAGAGCUCGAGAACAUCUUCGGAUGCGGAGGAGGCAGGCUUCGGUGGCGCGAUAGCGCCAACGUCCUCCACCUCCAAUGCAUCUCACCACAUGAUGAUGCCUGAAGAGCCUUGGUUUUUUG,-1.73
17,GACCAAUCUGCCCUCAGAGCUCGAGAACAUCUUCGGAUGCGGAGGAGGCAGGCUUCGGUGGCGCGAUAGCGCCAACGUCCUCAACCUCCAAUGCAUCCCACCACAAGAUGAUGCCUGAAGAGCCUUGGUUUUUUG,-0.451
18,GACCAAUCUGCCCUCAGAGCUCGAGAACAUCUUCGGAUGCGGAGGAGGGAGGCUUCGGUGGCGCGAUAGCGCCAACGUCCUUAAUCUCCAAUGCAUCCCACCACAUGAUGAUGCCUGAAGAGCCUUGGUUGUUUG,-1.67
19,GACCAAUCUGCCCUCAGAGCUCGAGAACAUCUUCGGAUGCGGAGGAGGCAGGCUUCGGUGGCGCGAUAGCGCCAACGUCCUCAACCUCCAAUGCAUCCUACCACAUGAUGAUGCCUGAAGAGCAUUGGUUUUUUG,-2.72
20,GACCAAUCUGCCCUCAGAGCUCGAGAACAUCUUCGGAUGCGGAGGAGGCAGGCAUCGGUGCCGCGAUAGCGCCAACGUCCUCAACCUCCAAUGCAUCCCACCACAUGAUGAUGCCUGAAGAGCCUUGGUUUUUUG,-2.03
21,GACCAAUCUGCCCUCAGAGCUCGAGAACAUCUUCGGAUGCCGAGGAGGCAGGCUUCGGUGGCGCGAUAGCGCCAACGUCCUCAACCUCCAAUGCAUCCCACCACAUGAUGAUGCCUUAAGAGCCUUGGUUUUUUG,-2.87

row,Variant,polymerase ribozyme fitness (log ratio)
1,GACCAAUCUGCCCUCAGAGCUCGAGAACAUCUUCGGAUGCUGGGGAGACAGGCUUCGGUGGCACGAUAGCGCCAACGUCCUCAACCUCCGAUGCAUCCCACCAUAUGAUGAUGCCUGAAUAGCCUUGGUUUUUUG,-4.4
2,GACCAAUCUGCCCUCAGAGCUCGAGAACAUCUUCGGAUGCGGAGGAGGCAGGCUUCGGUGGCGCGAUAGCGCCAACGUCCUCAACCUCCAAUGCAUCCAACCACAUGAUGAUGCCUGAGGAGCCAUGGUUUUUUG,-6.99
3,GACCAAUCUGCCCUCAGAGCUCGAGAACAUCUUCGGAUGCGGAGGAGGCUGGCUUCGGUGGCGCGAUAGCGCCAACGUCCUCAACCUCCAAUGCAUCCCACCACAUGAUGAUGCCUGAAGAGCCUUGGUUUUUUG,-1.71
4,GACCAAUCUGCCCUCAGAGCUCGAGAACAUCUUCGGAUGCCGAGGAGGCAGGCUUCGGUGGCGCGAUAGCGCCAACGUCCACAACCUCCAAUGCAUCCCACCACAUGAUGAUGCCUGAAGAGCCUUGGUUUUGUG,-2.53
5,GACCAAUCUGCCCUCAGAGCUCGAGAACAUCUUCGGAUGCGGAGGUGGCAGGCUUCGGUGGCACGAUAGCGCCAACGUCCUUAACCGCCAAUGCAUCCCACCACAUGAUGAUGCCUGAAGAGCCUUGGUUUUUUG,-2.41
6,GACCAAUCUGCCCUCAGAGCUCGAGAACAUCUUCGGAUGCCGAGGAGGCAGGCUUCGGUGGCGCGAUAUCGCCAACGUCCUUAACCUCCAAUGCAUCCCACCACUUGAUGAUGCCUGAAGAGACUUGGUUUUUUG,-1.3
7,GACCAAUCUGCCCUCAGAGCUCGAGAACAUCUUCGGAUGCCGAGGAGGCAGGCUACGGUGGCGCGAUAGCGCCAACGUCCUCAACCUCCAAUGCAUCCCACUACAUGAUGAUGCCUGAAGAGCCUUGGUUUUUUG,-3.43
8,GACCAAUCUGCCCUCAGAGCUCGAGAACAUCUUCGGAUGCCGAGGAGGCAGGCUUCGGUGGCCCGAUAGCGCCAACGUCCUCAACCUCCCAUGCAUCCCACCACAUGAUGAUGCCUGAAGAGGCUUGCUUUUUUG,-3.12
9,GACCAAUCUGCCCUCAGAGCUCGAGAACAUCUUCGGAUGCUGAGGAGGCAGGCUUCGGUGGCGCGGUAGCCCCAACGACCUCAACCUCCAAUGCAUCCCACCACAUGAUGAUGCCUGAAGAGCCUUGGUUUUUUG,-5.05
10,GACCAAUCUGCCCUCAGAGCUCGAGAACAUCUUCGGAUGCCGAGGAGGCAGGCUUCGGUGGCGCGAUAGCGCCAACGGCCUCAACCUCCAAUGCAUCCCACCACAUGAUGAUGCCUGAAGAACCUUGGUUUUUUG,-1.85
11,GACCAAUCUGCCCUCAGAGCUCGAGAACAUCUUCGGAUGCGGAGAAGGCCGGCUUCGGUGGCGCGAUAGCGCCAACGUCCUCAACCUCCAAUGCAUCCCACCACAUGAUGAUGCCUGAAGAGUCUUGGUUUUUUG,-0.694
12,GACCAAUCUGCCCUCAGAGCUCGAGAACAUCUUCGGAUGCGGAGGAGGCAGGCUUCGGUGACGCGAUAGCGCCAACGUCCUCAACCUCCAAUGCAUCCCACCACAUGAUGAUGCCUGAAGAGCCUUGGUUUUUUG,-0.141
13,GACCAAUCUGCCCUCAGAGCUCGAGAACAUCUUCGGAUGCCGAGGAGGCAGGCUUCGGUGGCGCGAUAGCGCCAACGUCCUCAACCUCCAAUGCAUCCCACCACAUGAUGAUGCCUGAAGAGCCUUGGUUGUUUG,-0.589
14,GACCAAUCUGCCCUCAGAGCUCGAGAACAUCUUCGGAUGCGGAGGAGGCAGGCUUCGGUGGCGCGAUAGCGCCAACGUCCUCAACCUCCAAUGCGUCCCACCACAUGAUGAUGUCUGAAGAGCCUUGGUUUUUUG,-2.64
15,GACCAAUCUGCCCUCAGAGCUCGAGAACAUCUUCGGAUGCGGAGGAGGCAGGCUUCGGUGGCGCGAUAGCGCCAACGUCCACAACCUCCAAUGCAUCCCACCACAUGAUGAUGCCUGAAGAGCCUUGGUUUUUUG,-1.07
16,GACCAAUCUGCCCUCAGAGCUCGAGAACAUCUUCGGAUGCUGUGGAGGCAGGCUUCGGUGGCGCGAUAGCGGCAACCUCCUCAACCUCCAAUACAUCCCACCACAUGAUGAUGCCUGAAGAGCGUUGGUUAUUUG,-0.181
17,GACCAAUCUGCCCUCAGAGCUCGAGAACAUCUUCGGAUGCGGAGUAGGCAGGCUUGGGUGGCGCGAUAGCGCCAACGUCCUCAACCUCCAAUGCAUCCCACCACAUGAUGAUGCCUGAAGAGCAUUGGUUUUUUG,-0.22
18,GACCAAUCUGCCCUCAGAGCUCGAGAACAUCUUCGGAUGCCGAGGAGGCAGGCUUCGGUGGCGCGAUAGCGCCAACGUCCUCAACCUCCAAUGCAUCCCACCACACGAUGCUGCCUGAAGAGCCUUGGUUUUUUG,-2.11
19,GACCAAUCUGCCCUCAGAGCUCGAGAACAUCUUCGGAUGCCGAGGAGGCAGGCUUCGGUGGCGCGAUAGCGCCAACGUCCUCAACCUCCAAUGCAUCCCACCACAUGAUGAAGCCUGAAGAGCCUUGGUUUUUUG,0.299
20,GACCAAUCUGCCCUCAGAGCUCGAGAACAUCUUCGGAUGCUGAGGAGGCAGGCUUCGGUGGCGCGAUAGCGCCAACGUCCUCCACCUCCAAUGCAUCCCACCACAUGAUAAUGCCUGAAGAGCCUUGGUUUUUUG,-4
21,GACCAAUCUGCCCUCAGAGCUCGAGAACAUCUUCGGAUGCGGAGGAGGCAGCCUUCGUUGGAGCGAUAGCGCCAACGCCCUCAACCUCCAAUGCAUCCCACCACAUGAUGCUGCCUGAAGAGCCUUAGUUUUUUG,-4.32

# — the RNAGym collection of RNA variant scans (doi:10.1073/pnas.2313332121)
